System: CO/N=C(\C(=O)N[C@@H]1C(=O)N2C(C(=O)O)=C(COC(C)=O)CS[C@H]12)c1csc(N)n1
Assay: purified protein
Conditions: 27°C, cefotaxime 12.5-200 μM, enzyme 5–70 nM

Substance: TEM-1 ß-lactamase (TEM-1) (Escherichia coli)
- Km: 1,500 ± 900 μM
- kcat: 1 ± 0.5 s⁻¹
- kcat/Km: 680 ± 530 M⁻¹ s⁻¹

From article PMC7716773, “Known Evolutionary Paths Are Accessible to Engineered ß-Lactamases Having Altered Protein Motions at the Timescale of Catalytic Turnover” (Frontiers in Molecular Biosciences, 2020)
